# According to patent publication US20160151487A1:
# Biological target: human neonatal Fc-receptor (FcRn), soluble extracellular domain with His-Avi Tag, co-expressed with beta-2-microglobulin (human) (UniProt P55899)
# Assay: FcRn affinity chromatography, pH gradient
# Sequence of human neonatal Fc-receptor (FcRn), soluble extracellular domain with His-Avi Tag, co-expressed with beta-2-microglobulin (human) (P55899 24-297 limits assumed, chain 1 of 2): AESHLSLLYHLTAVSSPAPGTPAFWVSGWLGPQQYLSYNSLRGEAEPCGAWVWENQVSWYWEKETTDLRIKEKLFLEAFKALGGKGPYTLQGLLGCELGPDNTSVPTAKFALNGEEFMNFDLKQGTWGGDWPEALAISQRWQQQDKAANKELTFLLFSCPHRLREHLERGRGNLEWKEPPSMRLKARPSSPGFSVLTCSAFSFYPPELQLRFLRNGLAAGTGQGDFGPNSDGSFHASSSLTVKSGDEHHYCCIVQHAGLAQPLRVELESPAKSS
# Sequence of human neonatal Fc-receptor (FcRn), soluble extracellular domain with His-Avi Tag, co-expressed with beta-2-microglobulin (human) (P61769 21-119 limits assumed, chain 2 of 2, further chain): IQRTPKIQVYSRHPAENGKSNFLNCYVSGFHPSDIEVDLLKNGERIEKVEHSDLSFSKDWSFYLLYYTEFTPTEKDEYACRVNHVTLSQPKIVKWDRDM
row,Substance,FcRn-affinity column retention time [min]
1,IgG1 antibody (not identified) with L234A/L235A/P329G and Y436A in both Fc-region polypeptides,41.3

# Biological target: human neonatal Fc-receptor (FcRn), soluble extracellular domain with His-Avi Tag, co-expressed with beta-2-microglobulin (human) (UniProt P55899)
# Assay: FcRn affinity chromatography
Substance,retention time on FcRn affinity column [min],relative shift of retention time [min]
"bispecific antibody (not identified, knobs-into-holes), one chain with H310A/H433A/Y436A",46.7,
IgG1 antibody (not identified) with L234A/L235A/P329G and H435A in both Fc-region polypeptides,,0.3 to 0.4
"bispecific antibody (not identified, knobs-into-holes), one chain with I253A/H310A/H435A",46.6,
"bispecific antibody (not identified, knobs-into-holes), one chain with I253A",48.8,
"bispecific antibody (not identified) assembled using the knobs-into-holes technology, no FcRn affecting mutation",51.8,
"bispecific antibody (not identified, knobs-into-holes), one chain with L251D/L314D/L432D",46.3,
"bispecific antibody (not identified, knobs-into-holes), one chain with H435A",48.8,
IgG1 antibody (not identified) with L234A/L235A/P329G and I253A in both Fc-region polypeptides,,0.3 to 0.4
"bispecific antibody (not identified, knobs-into-holes), one chain with H310A",48.4,
"bispecific antibody (not identified, knobs-into-holes), one chain with M252Y/S254T/T256E",56.2,
